From patent US20090124564A1 (YEDA RESEARCH AND DEVELOPMENT, published 2009)

Target: T1, mouse BCL-XL (mouse, UniProt Q64373 1-233)
T1 construct: whole, on cells; In mitochondria of FL5.12-BCL-XL cells
Assay: BSOCOES cross-linking in TNFα-treated FL5.12-BCL-XL cells, excised 45 kDa gel section, alkaline reversal, Western blots
Description: FIG. 16a-FL5.12-BCL-XL cells were induced for 5 hours in the presence TNFα/CHX (lanes 3 and 4) or were remained un-induced (lanes 1 and 2), following which mitochondria were prepared from the cells and were treated with the BSOCOES cross-linker (+) (lanes 2 and 4) or remained untreated (−) (lanes 1 and 3). At the end of the incubation, the membranes were lysed and were size-fractionated by SDS-PAGE and immunoblotted using anti-BID Abs. FIGS. 16b-d—The experiment presented in FIG. 16a was repeated and the gel sections corresponding to the position of the 45 kDa band in lanes 3 and 4 (FIG. 16a; marked by boxes) were excised, incubated in alkaline conditions, and later resolved as described in FIGS. 12a-c. Lane 1—excised gel band from lane 3 of the gel presented in FIG. 16a; lane 2—excised gel band from lane 4 of the gel presented in FIG. 16a. […] The asterisk marks cross-reactive substances that might have been released from the gel sections.
To assess whether this band represented a complex between tBID (15 kDa) and BCL-XL (30 kDa), the experiment was repeated and the gel sections corresponding to the position of the 45 kDa band in lanes 3 and 4 (marked by boxes in FIG. 16a) were excised, incubated in alkaline conditions, and later resolved as described in Example 7, hereinabove and in FIGS. 12a-c.

T1 sequence (Q64373 whole entry): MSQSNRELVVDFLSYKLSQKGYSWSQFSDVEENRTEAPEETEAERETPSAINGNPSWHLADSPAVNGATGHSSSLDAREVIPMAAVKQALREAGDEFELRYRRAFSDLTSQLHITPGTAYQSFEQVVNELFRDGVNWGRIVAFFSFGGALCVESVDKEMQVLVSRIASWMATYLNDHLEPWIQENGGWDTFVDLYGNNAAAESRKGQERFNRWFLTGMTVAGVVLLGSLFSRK

B1: tBID, endogenous, in TNFα/CHX-treated FL5.12 cells (other)
chain: GSQASRSFNQGRIEPDSESQEEIIHNIARHLAQIGDEMDHNIQPTLVRQLAAQFMNGSLSEEDKRNCLAKALDEVKTAFPRDMENDKAMLIMTMLLAKKVASHAPSLLRDVFHTTVNFINQNLFSYVRNLVRNEMD
notes: FL5.12 is a murine cell line; also called endogenous tBID
Q: Does B1 bind?
A: Result: binds
